Test results: article PMC8216552
Positions count from the first letter of the chain named. Several values for one entry are separate records, joined by “and”; a condition that tells them apart may be missing. Equal entries are not always repeated.

Experiments:
[1] = target: stabilized soluble CON-S envelope trimer (stabilized CON-S SOSIP gp140) (HIV-1 (group M consensus)); assay: negative stain electron microscopy; chimeric CON-S DS.SOSIP-664 trimers with a 10-fold molar excess of Fab, 1 h at room temperature; uranyl formate stain; 2D classes and 3D reconstruction (RELION)
[2] = substrate: CON-S gp120 with the N362 glycosylation site (HIV-1 (group M consensus))
[3] = target: stabilized soluble CON-S envelope trimer (stabilized CON-S SOSIP gp140) (HIV-1 (group M consensus))
[4] = substrate: CON-S gp120 (HIV-1 (group M consensus)); assay: ELISA; direct ELISA: HIV-1 envelope protein (2 ug/mL) in sodium bicarbonate buffer coated on 384-well plates overnight at 4 C; serially diluted antibodies 90 min; detected with HRP anti-IgG Fc; titres as area under the log-transformed curve (log AUC)

B1: DH842 Fab (Fab, V domains shown)
VH: QVQLQESGPGLMQPAETLSLTCAVSRDSIGSGYYAWGWFRQVPGKGLEWIVTIYTSTGNIYDESPLKSRVTISRDTSKNQFSLKLTSVTPADTAVYFCAREGCNTVFCSAGWFDVWGPGLLVTVSS
VL: QAVLTQPTALSASPGASARLTCTLRSGISVADYRIFWYQQRPGSPPRYLLNYRTDSDHHQGSGVPSRFSGSKDDSANTGFLVISGLQSEDEADYHCMIRHNTAYIFGGGTRLTLL
- percent of analyzed Envs with one Fab bound [1]: 34%
- percent of analyzed Envs with two Fabs bound [1]: 53%

B2: DH840.1 IgG (antibody, V domains shown)
VH: QVQLKESGPGLVRPSETLSLTCAVSGTSINSAYAWGWVRLPPGKGLEWIMTVYTSTGNTYSDPSLKSRVTISKDTSKNQFSLRLSSVTVEDTAVYFCARADGSDSGWPHFDNWGQGLLVTVSS
VL: EIMVTQSPATLSVSPGERATLSCRASQSVRNRIAWYQQKPGQSPRLLIYDASIRAPGIPDRLSGSGSGTEFTLTINSLEPSDVAVYFCQLEANWLTFGGGTKVEIK
- maximum percent neutralization of CON-S pseudovirus with the N362 glycan (TZM-bl cells) [2]: 45%
- maximum percent neutralization of wild-type CON-S pseudovirus (TZM-bl cells) [3]: 83%

B3: DH840.1 Fab (Fab, V domains shown)
VH: B2 VH
VL: B2 VL
- percent of trimers bound by Fab [1]: 33%
- stoichiometry N (Fab per trimer) [1]: 1

B4: DH840.1 W100bA (antibody, V domains shown)
VH: B2 VH with W107A
VL: B2 VL
- percent reduction of binding against wild-type DH840.1 [4]: 64%

B5: DH846.1 Fab (Fab, V domains shown)
VH: QLQLQESGPGLVKPSETLSLTCDVSGVSISSNYGWGWIRQPPGKGLDWIVTIYGGTGNTYYAPSLEGRVAISKDASKNQFSLRLNSVTAADTAVYYCARKITYSSGWYYFDYWGQGVLVAVSS
VL: EIVMTQSPATLSLSPGERATLSCRASQSVSSRLAWYQQKPGQAPRLLIYDASNRATGIPDRFSGSGSGTEFTLTISGLEPEDVAVYFCQEDHNWSTFGQGTKVEIK
- stoichiometry N (Fabs per trimer) [1]: 2 and 3

B6: DH845.1 Fab (Fab, V domains shown)
VH: QVQLQESGPGLVKPSETLSLTCAVSGGSMSSVYQGWGWIRQPPGKGLEWIATTYTSTGNIYYNPSLKGRGTVSRDTSKNQFSLKLSAVTAADTAVYYCARLNLGDSGDYTGVSEYFDFWGQGALVTVSS
VL: AIQLTQSPSALSASVGDRVTISCRASQNIYSNLAWYQQKPGKAPKLLIFGASRLQSGIPSRFSGSGSGTDFTLTISSLQPEDSATYYCQQVYSNFYSFGQGTKVEIK
- stoichiometry N (Fabs per trimer) [1]: 2 and 3
